Measurements as given in publication PMC12691639.

Target: His-K62-HA expressed in E. coli without the eukaryotic N-terminal signal sequence (Saccharomyces paradoxus)
Assay: denaturing SDS-PAGE and western blot (heat- and detergent-resistant oligomers); E. coli membrane fractions treated with urea before boiling with gel loading buffer; high molecular weight complex taken apart into discrete oligomers

Substance “His-K62-HA expressed in E. coli without the eukaryotic N-terminal signal sequence (natural protein)” has a stoichiometry N of over 9.
